From US20100015637A1 (AbbVie / Abbott, published 2010)
Each block holds one molecule with its values, some of them ahead of it.

Key:
[1] = target: human PlGF-1 comprising amino acids 1-137 produced in human embryonic kidney cells (human) (UniProt P49763); experiment: Format 2 …, capture MAb264, detection Pb264; sFlt-1 0 pmol/L (ratio 0)
[2] = target: human PlGF-1 comprising amino acids 1-137 produced in human embryonic kidney cells (human) (UniProt P49763); experiment: Format 2 …, capture MAb264, detection Pb264; sFlt-1 1227 pmol/L (ratio 40)
[3] = target: human PlGF-1 comprising amino acids 1-137 produced in human embryonic kidney cells (human) (UniProt P49763); experiment: Format 1 …, capture 2-826-335, detection 1-255-713; sFlt-1 1533 pmol/L (ratio 50)
[4] = target: human PlGF-1 comprising amino acids 1-137 produced in human embryonic kidney cells (human) (UniProt P49763); experiment: Format 1 …, capture 2-826-335, detection 1-255-713; sFlt-1 4600 pmol/L (ratio 150)
[5] = target: human PlGF-1 comprising amino acids 1-137 produced in human embryonic kidney cells (human) (UniProt P49763); experiment: Format 3 Quantikine ELISA, capture MAb264, detection Pb264; sFlt-1 4600 pmol/L (ratio 150)
[6] = target: T1, CHO human PlGF-1 fragment (comprising amino acids 17-131; ATCC PTA-8540) (human, UniProt P49763 35-221); experiment: … sandwich, capture MAb255, detection pAb264; antigen 250 pg/mL
T1 sequence: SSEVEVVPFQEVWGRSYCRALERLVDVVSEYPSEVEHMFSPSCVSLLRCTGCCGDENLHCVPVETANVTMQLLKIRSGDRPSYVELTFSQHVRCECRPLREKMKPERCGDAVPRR

[7] = target: T2, CHO human PlGF-1 comprising amino acids 1-137 (human PlGF-1-His (1-131), CHO 6305) (human, UniProt P49763 19-221, N-glycans at N21 (completely glycosylated) and N89 (partially glycosylated)); experiment: as above
T2 construct: Mature human PlGF-1 with 6xHis tag (137 amino acids); also called CHO (1-137)
T2 sequence: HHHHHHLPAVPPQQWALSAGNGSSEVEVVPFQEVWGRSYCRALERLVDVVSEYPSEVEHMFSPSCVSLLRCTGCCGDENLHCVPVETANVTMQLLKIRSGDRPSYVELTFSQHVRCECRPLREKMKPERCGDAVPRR

[8] = target: T3, human PlGF-1 comprising amino acids 1-137 produced in human embryonic kidney cells (human, UniProt P49763 19-221); experiment: as above
T3 construct: Mature human PlGF-1 with 6xHis tag; also called HEK (1-137); full length HEK human PlGF-1 (1-137)
T3 sequence: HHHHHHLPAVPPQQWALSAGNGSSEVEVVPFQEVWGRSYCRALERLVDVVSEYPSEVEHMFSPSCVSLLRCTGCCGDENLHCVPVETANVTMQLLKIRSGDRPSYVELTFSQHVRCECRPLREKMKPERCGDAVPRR

[9] = target: T4, human PlGF-1 fragment (comprising amino acids 17-131) produced in human embryonic kidney cells (human, UniProt P49763 35-221); experiment: as above
T4 sequence: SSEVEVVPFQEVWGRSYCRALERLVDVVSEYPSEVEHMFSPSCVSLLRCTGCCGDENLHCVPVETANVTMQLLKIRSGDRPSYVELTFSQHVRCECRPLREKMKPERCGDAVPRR

[10] = target: T1, CHO human PlGF-1 fragment (comprising …); experiment: … sandwich, capture MAb255, detection MAb826; antigen 0 pg/mL (blank)
Procedure, shortened: (§1)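 Human PlGF-1 antigen preparations, including recombinant forms expressed in CHO cells, were tested at 0 to 1500 pg/mL in a sandwich immunoassay. The capture antibody was a monoclonal anti-human PlGF-1 antibody immobilized on magnetic microparticles by passive coating and EDAC cross-linking. Detection used an acridinium ester-labeled monoclonal anti-human PlGF-1 antibody. Signal was recorded as chemiluminescent relative light units (RLU) at each antigen level.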

[11] = target: T2, CHO human PlGF-1 comprising amino acids …; experiment: as above
Procedure, shortened: as §1

[12] = target: T3, human PlGF-1 comprising amino acids …; experiment: as above
Procedure, shortened: as §1

[13] = target: T4, human PlGF-1 fragment (comprising amino …); experiment: as above
Procedure, shortened: as §1

[14] = target: T4, human PlGF-1 fragment (comprising amino …); experiment: … sandwich, capture MAb826, detection pAb264; antigen 250 pg/mL
[15] = target: T1, CHO human PlGF-1 fragment (comprising …); experiment: … sandwich, capture MAb826, detection pAb264; antigen 0 pg/mL (blank)
[16] = target: T2, CHO human PlGF-1 comprising amino acids …; experiment: as above
[17] = target: T3, human PlGF-1 comprising amino acids …; experiment: as above
[18] = target: T4, human PlGF-1 fragment (comprising amino …); experiment: as above

- % Inhibition [1]: 0%
- PlGF-1 Measured [1]: 786 pg/mL
- % Inhibition [2]: 92.9%
- PlGF-1 Measured [2]: 55.5 pg/mL
- % Inhibition [3]: 92.5%
- PlGF-1 Measured [3]: 76.6 pg/mL
- % Inhibition [4]: 95%
- PlGF-1 Measured [4]: 51.3 pg/mL
- % Inhibition [5]: 81.6%
- PlGF-1 Measured [5]: 159 pg/mL
Molecule: native sFlt-1, isolated from human placental tissue (from UniProt P17948 27-687) (receptor)

- RLU [6]: 283000 RLU
- RLU [7]: 226000 RLU
- RLU [8]: 559000 RLU
- RLU [9]: 363000 RLU
- RLU [10]: 5940 RLU
- RLU [11]: 6270 RLU
- RLU [12]: 6110 RLU
- RLU [13]: 5760 RLU
B1: monoclonal antibody 1-255-713 (produced by murine hybridoma cell line 1-255-713, ATCC PTA-8536) (antibody, mouse IgG2a, V domains shown)
VH: QVHLQQSGAELMKPGASVKISCKATGYTFSSYWIEWVKQRPGHGLEWIGEILPGSVSNNFNEKFKDKATLTADPSSNTAYIQVSSLTSEDSAVYYCARSTGFYYGGNYFDHWGQGTTLAVSS
VL: DVVMTQTPLSLPVSPGDQASISCRSSQSLVHSNGHTYLHWYLQKPGQSPKLLIYKVSNRFSGVPDRVSGSGSGTDFTLKISRVEAEDLGVYFCSQSTHVPPTFGGGTKLEIKR
notes: also called MAb255

- RLU [14]: 126000 RLU
- RLU [15]: 6680 RLU
- RLU [16]: 6600 RLU
- RLU [17]: 6530 RLU
- RLU [18]: 6590 RLU
B2: monoclonal antibody 2-826-335 (produced by murine hybridoma cell line 2-826-335, ATCC PTA-8539) (antibody, mouse IgG1, V domains shown)
VH: QVQLKQSGPGLVQPSQSLSITCTVSGFSLTTYGIHWVRQSPGKGLEWLGVMWSGGDTDYDAAFISRLSISKDNSKSQVFFKMNSLQANDTGIYYCARYRFYGMDYWGQGTSVTVSS
VL: AIQMTQSSSSFSVSLGDRVTITCKASEDIYNRFAWYQQKPGNAPRLLISGAASLEAGVPSRFSGSGSGQDYTLSITSLQTEDVATYYCQQYWSTPWTFGGGTKLEIKR
notes: also called MAb826
